# The nanobody polyreactivity screen of Harvey et al. (2022)
# Experiment: yeast display, Sf9 membrane polyspecificity reagent, FACS + sequencing; frameworks hold sequencing errors
# In short: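 Using colony PCR, genes from sorted yeast display clones were amplified, then sequenced on MiSeq at 2 × 250 and filtered by CDR length. The clones had been stained with 10% biotinylated, detergent-solubilized Sf9 membrane reagent for 1 hour at 4 °C and sorted by FACS into low and high (top ~1%) gates on anti-HA and streptavidin fluorescence. Polyreactivity labels come from the gate of origin.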
row,Sequence,polyreactivity (PSR sort gate)
1,QVQLVESGGGLVQAGGSLRLSCAASGRIFYRYAMGWYRQAPGKERELVAGISNSGGSTYYADSVKGRFTISRDNAKNSVYLQRNSLKPEDTAVYYCARLSTKPLPYDYWGQGTQVTVSS,high polyreactivity
2,QVQLVESGGGLVQAGGSLRLSCAASGRIFYRYAMGWYRQAPGKERELVASIRFSDGSTYYADSVKGRFTISRDNAKNTVYLQMNSLKPEDTALYYCAARPLRSRNGYYWGQGTQVTVSS,high polyreactivity
3,QVQLVESGGGLVQAGGSLRLSCAASGRIFYRYAMGWYSQAPGKESELVAAITWRGGSTSYPDSVKGRFTISRDNAKNTVYLQMNSLKPEATAVYYCAAAAYGVPWRSYLGVFKSHMDYWGQGTQVTVSS,high polyreactivity
4,QVQLVESGGGLVQAGGSLRLSCAASGRIFYRYARGWYRQAPGKEREFVAAITSGTSTNYADSVKGRFTISRDNAKNSLYVQRNSLKPEDTAVYYCATRYYWKYAEYDYWGQGTQVTVSS,high polyreactivity
5,QVQLVESGGGLVQAGGSLRLSCAASGRIFYRYDMGWYRQAPGKERELVAAISSGGNTNYADSVKGRFTISRDNAKNTVYLQMNCLKPEDTAVYYCAKRYRSYQGSSRQGNYGYWGQGTQVSVSS,high polyreactivity
6,QVQLVESGGGLVQAGGSLRLSCAASGRIFYSNAMGWYRQAPGKERELVAAISGSTDSTYYADSVKGRFTISRDNAKNTDYLQMNSVKPEDTAVYYCAAADYWFYYGYYLTMDFWGQGTQVTVSS,low polyreactivity
7,QVQLVESGGGLVQAGGSLRLSCAASGRIFYSNAMGWYRQAPGKERELVAAITTSGASTYYADSVKGRFTISRDNAKNTVYLQMNSLKPEDTSVYYCATYAVVYPFAMDYWGQGTQVTVSS,low polyreactivity
8,QVQLVESGGGLVQAGGSLRLSCAASGRIFYSNTMGWNRQAPGKEREMVATITSGGSTNYADSVKGRFTISRDNAKNTVYFQMNILKPEDTAVYYCAADAYATHPFRSESDYWGQGTQVTVSS,low polyreactivity
9,QVQLVESGGGLVQAGGSLRLSCAASGRIFYSYAMGCSRQAPGKERELVAAITRGGRTKYADSVKGRFTISRDNEKNTVYLQMNSLKPEDTAVYYCAAVKFYTEYNQYDYWGQGTQVTVSS,high polyreactivity
10,QVQLVESGGGLVQAGGSLRLSCAASGRIFYSYAMGWNRQAPGKESQLVARSTRGSSTYYADSVKGRLTISRDNAKKTFYVQMNSMKPEDTAVYYCAQSRYTALTNHWSHDYWGPGTQVTVSS,low polyreactivity
11,QVQLVESGGGLVQAGGSLRLSCAASGRIFYSYAMGWYRQAPGKDRELVAAITRTGGNTYYADSVKGRFTISRDNAKNTVYLQMNSLKPEDTAVYYCNAEYWKEHYPEIYYSWGQGTQVTVSS,low polyreactivity
12,QVQLVESGGGLVQAGGSLRLSCAASGRIFYSYAMGWYRQAPGKEREFVAVISSDGGSTYYADSVKGRFTISRDNAKNTVYLQMNSLKPEDTAVYYCNAEIDYDVYEYDYWGQGTQVTVSS,low polyreactivity
13,QVQLVESGGGLVQAGGSLRLSCAASGRIFYSYAMGWYRQAPGKERELVAAISSRTGSTYYADSVKGRFTISRDNAKNTVYLQMNSLKPEDTAVYYCAAQSGWLRYYYWGQGTLVTVSS,high polyreactivity
14,QVQLVESGGGLVQAGGSLRLSCAASGRIFYSYAMGWYRQAPGKERELVAAITRSVARTYYADSVKGRFTISRDNAKNTVYLQMNCLKPEDTAVYYCAADWYQWGGRYYAPRYYYWGQGTQVTVSS,high polyreactivity
15,QVQLVESGGGLVQAGGSLRLSCAASGRIFYTNAMGWYRKAPGKERELVAGITCSGDSTYYADSVKGRFTISRDNAKNTVYLQMNSLKPEDTPVYYCAARWRYVLMDYWGQGNQVTVSS,low polyreactivity
16,QVQLVESGGGLVQAGGSLRLSCAASGRIFYTNAMGWYRQAPGKERELVATISGSGGNTYYADSVKGRFTISRDNAKNTVYLQMNSLKPEDTAVYYCAKAYYTPYGVYVLHYYWGQGTQVTVSS,high polyreactivity
17,QVQLVESGGGLVQAGGSLRLSCAASGRIFYTNAMGWYRQAPGKESELVAVISWGGDTTYYADSVKGRFTISRDNAKYTVYLQMNSLKPDDTADYYFNADWGPTYEIYDSWGQGTQVTVSS,low polyreactivity
18,QVQLVESGGGLVQAGGSLRLSCAASGRIFYTNGMGWYRQAPGKERELVAAISYNGGRTYYADSVKGRFTISRDNAKNTVYLQMNSLKPEDTAVYYCNKRGDYQFHFDYWGQGTQVTVSA,low polyreactivity
19,QVQLVESGGGLVQAGGSLRLSCAASGRIFYTNVMGWYRQATGKERELVAAISTGGGRTYYADSVKGRITISRDNAKNSVYLQMNSLKPEDTAVYDCAASGRYAIVWGDQYYGYYYWGQGTQVTVSS,high polyreactivity
20,QVQLVESGGGLVQAGGSLRLSCAASGRIFYTYAMGWYRQAPGKERELVAAIRWSSGSTFYADSVKGRFTISRDNAKNSVYLQMNSLKPEDTAVYYCATEYYPQYQSTGWYDYWGQGTQVTVSS,low polyreactivity
21,QVQLVESGGGLVQAGGSLRLSCAASGRIFYTYAMGWYRQSPGKERELVAAISWGGGRTYYADSVKGRFTISRDNAKNTVYLQMNSLKPEDTAVYYCNAVSLKFTRKYDYWGQGTQVTVSS,high polyreactivity
22,QVQLVESGGGLVQAGGSLRLSCAASGRIFYTYVMGWYRQAPGKERELVAAITRRGGSTNYADSVKGRFTISRDNAKNTVYLQMNSLKPEDTAVYYCAAGTYKGSSVYGMDYWGQGTQVTVSS,high polyreactivity

row,Sequence,polyreactivity (PSR sort gate)
1,QVQLVESGGGLVQAGGSLRLSCAASGRIFYVYAMGWYRAPGKERELVASISYIGGSTYYADSVKGRFTISRDNAKNTVYLQMNSLIPEDTAVYYCATDYYGYTVSFLVASWPDDYWGQGTQVTVSS,low polyreactivity
2,QVQLVESGGGLVQAGGSLRLSCAASGRIFYVYAMGWYRPAPGKERELVAAITQSGGRTYYADSVKGRFTISRDNAKNTVYLQMNSLKPEDTAVYYCNADGDDLDWNYYLVQYDYWGQGTQVTVSS,low polyreactivity
3,QVQLVESGGGLVQAGGSLRLSCAASGRIFYVYAMGWYRQAPGKERELVAAISRGGSTNYADSVKGRFTISRDNAKNTVYLQMNSLKPEDTAVYYCAASSLPHYSYRHSYLYEYWGQGTQVTVSS,low polyreactivity
4,QVQLVESGGGLVQAGGSLRLSCAASGRIFYVYTLGWYRQAPGKERELVAAITSGGSTNYADSVKGRFTISRDNAKNTVYLQMNSLKPEDTAVYFCAKKAWVIYNRKFSSGYDYWGQGTQVTVSS,low polyreactivity
5,QVQLVESGGGLVQAGGSLRLSCAASGRIFYVYTMGWYRQARGKERELVAAISWSGGSTHYADSVKGRFTISRDNAKNTVYLQMNSLKPEDTAVYYCNKGVLSRVAFEYWGQGTQVTVSS,low polyreactivity
6,QVQLVESGGGLVQAGGSLRLSCAASGRIFYWYAMGWYRKAPGKERELVAAIIWSGGSSYYADSVKGRFTISRDNAKNTVYLQMNSLKPEDTAVYYSAADRILEMGYWGQGTQVTVSS,low polyreactivity
7,QVQLVESGGGLVQAGGSLRLSCAASGRIFYWYARGWYRQAPGKERELVASISRRAGSTYYADSVKGRFTISRDNAKNTVYLQMHSLKPEDTAVYYCAAVGRFDRVFDYDYWGQGTQVTVSS,high polyreactivity
8,QVQLVESGGGLVQAGGSLRLSCAASGRIFYWYVMGWYRQAPGKERELVASISSGGGTNYADSVKGRFTISRDNAKNTVYLQMNSLKPEDTAVYYCAARAYPYYWTGQKQSRFGYWGQGTQVTVSS,high polyreactivity
9,QVQLVESGGGLVQAGGSLRLSCAASGRIFYYNAMGWFRQAPGQERELVAAITSGGSTNYADSVKGRFTISRDNAKNTVYLQMNSLTPEDTAVYYCNARRYGSPRSEVHYDYWGQGTQVTVSS,low polyreactivity
10,QVQLVESGGGLVQAGGSLRLSCAASGRIFYYNAMGWYRPAPGKVRELVAVMTGGGSTNYADSVKGRFTISRDNAKNTVYLQMNSLKPEDTAVYYCAARRAWGTKYHGYDYWGQGTQVTVSS,low polyreactivity
11,QVQLVESGGGLVQAGGSLRLSCAASGRIFYYNAMGWYRQAPGKERDLVAAITYSGTSTYYADSVKGRFTISRDNAKNTVYLQINSLKPEDTAVYYCAVDSTDQAPPTYDYWGQGTQVTVSS,low polyreactivity
12,QVQLVESGGGLVQAGGSLRLSCAASGRIFYYNAMGWYRQAPGKERELVAAISTRGTSTYYADSVKGRFTISRDNAKNTVYLQMNSLKPEDTAVYYCNRASGNWQSYLRYDYWGQGTQVTVSS,low polyreactivity
13,QVQLVESGGGLVQAGGSLRLSCAASGRIFYYNGMGWYRQAPGKERELVAAISSRGGSTYYADSVKGRFTISRDNAKNTVYLQMNSLKPEDTAVYYCAATLSDRYSWRPYGMYYWGQGTQVTVSS,high polyreactivity
14,QVQLVESGGGLVQAGGSLRLSCAASGRIFYYNSMGWYRQAPGKERELVAAIRRSGSRTYYADSVKGRFTISRDNAKNTVYFQMNSLIPEDTAVYYCAAKYASFGHHDSWGQGTQVTVSS,high polyreactivity
15,QVQLVESGGGLVQAGGSLRLSCAASGRIFYYNSMGWYRQAPGKERELVASITGSGGSTYYADSVKGRFTISRDNAKNTVYLQMNSLKPEDTAVYYFAKREYLYPFYYVAKYDYWGQGTQVTVSS,low polyreactivity
16,QVQLVESGGGLVQAGGSLRLSCAASGRIFYYNTMGWYRQAPGKARELVAAITTNGGSTYYADSVKGRFTISRDNAKNTVYLQMNSPKPEDTAVYYCNRDRYPYYYAYNYWGQGTQVTVSS,low polyreactivity
17,QVQLVESGGGLVQAGGSLRLSCAASGRIFYYTTMGWSRQAPGKERELVAAISVSGGSTYYADSVKGRFTISRDKAKNTVYLQRNSLKPEDTAVYYCNAKDWYFYRYDYWGQGTQVTVSS,low polyreactivity
18,QVQLVESGGGLVQAGGSLRLSCAASGRIFYYYAMGWYRQAPGKERELVADITWSGGSTYYADSVKGRFTISRDNAKNTVYLLRNSLKPEDTAVYYCNAVSFNYLLEYDYWGQGTQVTVSS,high polyreactivity
19,QVQLVESGGGLVQAGGSLRLSCAASGRIFYYYAMGWYRQAPRKERELVASINSGGSTYYADSVKGRFTISRDNAKNTVYLQMNSMKPEDTAVYYCAAGFQLVKGYLSGRAAYYYWGQGTQVTVSS,high polyreactivity
20,QVQLVESGGGLVQAGGSLRLSCAASGRIFYYYDMGWYRQAPGKERELVAAINYSGGSTYYADSVKGRFTISRDNAKNTVYLQMNSLKPEDTAVYYCAADGYYYYSYGTTDQDDYWGQGTQVTVSS,low polyreactivity
21,QVQLVESGGGLVQAGGSLRLSCAASGRIFYYYDMGWYRQAPGKERELVAAITYSDSSTYADSVKGRFTISRDNAKNTVYLQMNSLKPEDTAVYYCAADYVYPGVRLEMDYWGQGTQVTVSS,low polyreactivity
